# T1: Glucocorticoid receptor (NR3C1) with the LLID motif mutated to AAAA by site-directed mutagenesis of Myc-DDK tagged NR3C1
# T1 chain: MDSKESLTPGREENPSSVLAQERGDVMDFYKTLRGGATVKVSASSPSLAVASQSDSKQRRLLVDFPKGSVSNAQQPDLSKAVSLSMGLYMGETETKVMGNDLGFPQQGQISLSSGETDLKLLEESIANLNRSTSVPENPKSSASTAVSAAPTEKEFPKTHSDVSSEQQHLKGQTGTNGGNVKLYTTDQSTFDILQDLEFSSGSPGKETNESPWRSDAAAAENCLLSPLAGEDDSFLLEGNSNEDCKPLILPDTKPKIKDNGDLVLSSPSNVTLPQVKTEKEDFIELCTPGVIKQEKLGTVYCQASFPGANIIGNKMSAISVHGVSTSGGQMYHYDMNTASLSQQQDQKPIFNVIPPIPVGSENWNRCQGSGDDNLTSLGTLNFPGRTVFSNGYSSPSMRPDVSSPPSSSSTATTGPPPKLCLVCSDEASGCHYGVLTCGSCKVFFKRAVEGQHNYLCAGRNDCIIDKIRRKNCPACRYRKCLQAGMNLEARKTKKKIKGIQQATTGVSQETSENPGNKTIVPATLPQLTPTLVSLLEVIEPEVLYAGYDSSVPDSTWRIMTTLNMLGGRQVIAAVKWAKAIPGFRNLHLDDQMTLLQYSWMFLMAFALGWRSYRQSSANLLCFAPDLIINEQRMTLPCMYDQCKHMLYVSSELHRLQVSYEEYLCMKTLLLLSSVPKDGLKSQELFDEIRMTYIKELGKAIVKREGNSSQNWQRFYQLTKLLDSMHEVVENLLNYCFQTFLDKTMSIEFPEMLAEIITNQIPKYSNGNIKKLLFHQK
# B1: Recombinant human CASP1 (Enzo Life Sciences CASP1 assay kit for drug discovery, catalog number BML-AK701-0001) (protein)
# chain: NPAMPTSSGSEGNVKLCSLEEAQRIWKQKSAEIYPIMDKSSRTRLALIICNEEFDSIPRRTGAEVDITGMTMLLQNLGYSVDVKKNLTASDMTTELEAFAHRPEHKTSDSTFLVFMSHGIREGICGKKHSEQVPDILQLNAIFNMLNTKNCPSLKDKPKVIIIQACRGDSPGVVWFKDSVGVSGNLSLPTTEEFEDDAIKKAHIEKDFIAFCSSTPDNVSWRHPTMGSVFIGRLIEHMQEYACSCDVEEIFRKVRFSFEQPDGRAQMPTTERVTLTRCFYLFPGH
# Legend:
# [1] = molecular target: Doubly mutated GR (double mutagenized GR, both CASP1 cleavage sites LLID and IKQE replaced by alanines), expressed from pLX304 lentivirus (human) (UniProt P04150); assay: cell-based or functional assay
# [2] = molecular target: Endogenous glucocorticoid receptor (90-kDa GR) of NALM-6 human leukemia cells (human) (UniProt P04150); assay: cell-based or functional assay
# [3] = molecular target: T1, Glucocorticoid receptor (NR3C1) with …
molecule,measurement,setting,value
Full-length CASP1 (Origene catalog # RC218364; GenBank Accession No. NM_033292) overexpressed in Nalm6 leukemia cells by lentivirus (from UniProt P29466 1-404) (enzyme),fold decrease in prednisolone LC50 (MTT assay) in CASP1-overexpressing NALM-6 cells expressing GR without CASP1 cleavage sites,[1],9.4 fold
same,GR protein level in CASP1-overexpressing Nalm6 cells 24 hours after activation of CASP1 (western blot),[2],35 % reduction
same,"level of 90-kDa GR after activation of CASP1 (LPS/ATP) in shNT CASP1-overexpressing NALM-6 cells (western blot, normalized for HSP90)",[2],2 fold lower
B1,cleavage of mutated GR in CASP1 enzymatic assay (western blot),[3],Site-directed mutagenesis of the LLID motif (SEQ ID NO: 20) ablated cleavage of the glucocorticoid receptor at this location (FIG. 3B) and revealed a secondary CASP1 cleavage site in the GR

# From patent publication US20160230173A1
